The target of experiment [1] is FITC-labeled RLAAK peptide. Kind of experiment: fluorescence polarisation.
For experiment [2], the target named is FITC-labeled RDAAK peptide. Put plainly: fluorescence polarisation.

In experiment [1], “His-MBP-OsPRT6-UBR 136H mutant (domain or fragment)” came in with a Kd of 58.9 µM.

“His-MBP-OsPRT6-UBR 136H+161V double mutant (domain or fragment)” registered a Kd in experiment [1] of 709 µM.

“His-MBP-OsPRT6-UBR 161V mutant (domain or fragment)” yielded a dissociation constant (Kd) in experiment [1] of 41.4 µM.

Regarding “His-MBP-OsPRT6-UBR wild type (domain or fragment)”, the Kd in experiment [2] stood at 137 µM; in experiment [1], 25.8 µM.

One may read the Kd as the constant that tells how readily two partners part at equilibrium.
